# Laboratory results as given in paper doi:10.1101/2020.09.01.278291 (bioRxiv, 2020).
# Target: LRH-1 ligand binding domain (LBD), residues 299-541, His tag cleaved (human, UniProt O00482 299-541)
# Experiment: crystal structure
# Sequence of LRH-1 ligand binding domain (LBD), residues 299-541, His tag cleaved (O00482 299-541): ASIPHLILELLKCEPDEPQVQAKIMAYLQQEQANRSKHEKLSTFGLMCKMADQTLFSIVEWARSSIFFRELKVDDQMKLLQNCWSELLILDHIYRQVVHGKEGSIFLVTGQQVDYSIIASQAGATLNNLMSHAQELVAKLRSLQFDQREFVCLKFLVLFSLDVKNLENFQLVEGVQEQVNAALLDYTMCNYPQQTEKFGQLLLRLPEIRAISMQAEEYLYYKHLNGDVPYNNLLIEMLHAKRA
binder,measurement,value
KENALLRYLLDK [Tif2 peptide (transcriptional intermediary factor 2 coregulator peptide)],binding result,binds
